Measured values reported in US20250026849A1 (ARCELLX, published 2025).

T1: BCMA (Homo sapiens (Human), UniProt Q02223 1-54, limits assumed)
T1 sequence: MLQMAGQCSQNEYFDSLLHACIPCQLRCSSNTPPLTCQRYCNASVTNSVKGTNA


target: T1, BCMA; test: ELISA, format not described; set-up: unit not given here

Binder | ELISA_avg
D-domain SEQ ID NO: 149 (designed binder) MGSWMEFEGRLPAILARLRALGGSEAELAAFEKEIAAFESELQAYKGKGNPEVEHLRDKAAYIRWMLQAYRHN | 3.93
D-domain SEQ ID NO: 150 (designed binder) MGSWFEFQNRLQAILFRLRALGGSEAELAAFEKEIAAFESELQAYKGKGNPEVENLRDKAAYIRLMLQAYRHN | 5.39
D-domain SEQ ID NO: 151 (designed binder) MGSWVEFDMRLQAILERLRALGGSEAELAAFEKEIAAFESELQAYKGKGNPEVEHLRDSAAYIRLMLQAYRHN | 23.5
D-domain SEQ ID NO: 148 (designed binder) MGSWMEFQGRLPAILARLRALGGSEAELAAFEKEIAAFESELQAYKGKGNPEVEHLRDKAAYIRWMLQAYRHN | 8.32
D-domain SEQ ID NO: 129 (designed binder) MGSWVEFGTRLSAIYNRLWALGGSEAELAAFEKEIAAFESELQAYKGKGNPEVEDLRFEAAIIRIMLQAYRHN | 15.4
D-domain SEQ ID NO: 139 (designed binder) MGSWSEFSTRLSAIYVRLWALGGSEAELAAFEKEIAAFESELQAYKGKGNPEVEYLRNKAASIRKTLQAYRHN | 5.35
D-domain SEQ ID NO: 130 (designed binder) MGSWVEFTHRLDAIYIRLWALGGSEAELAAFEKEIAAFESELQAYKGKGNPEVEELRHEAAVIREELQAYRHN | 13.9
D-domain SEQ ID NO: 145 (designed binder) MGSWEEFYGRLSAIQDRLWALGGSEAELAAFEKEIAAFESELQAYKGKGNPEVEWLRMHAAVIRRALQAYRHN | 3.28
D-domain SEQ ID NO: 123 (designed binder) MGSWQEFYNRLEAIHMRLFALGGSEAELAAFEKEIAAFESELQAYKGKGNPEVEGLRSDAAPIRDVLQAYRHN | 6.47
D-domain SEQ ID NO: 127 (designed binder) MGSWFEFQYRLEAIFYRLLALGGSEAELAAFEKEIAAFESELQAYKGKGKPEVEELRVRAALIRHLLQAYRHN | 17.3
D-domain SEQ ID NO: 140 (designed binder) MGSWVEFRYRLGAIYHRLWALGGSEAELAAFEKEIAAFESELQAYKGKGNPEVEVLRDRAATIRRLLQAYRHN | 10.8
D-domain SEQ ID NO: 128 (designed binder) MGSWVEFHARLDAIYTRLGALGGSEAELAAFEKEIAAFESELQAYKGKGNPEVEYLRVLAAHIRISLQAYRHN | 3.8
D-domain SEQ ID NO: 118 (designed binder) MGSWYEFEDRLVAIWIRLDALGGSEAELAAFEKEIAAFESELQAYKGKGNPEVEELRYNAAFIRGALQAYRHN | 4.93
D-domain SEQ ID NO: 196 (designed binder) MGSWSEFWVRLGAIRDRLDALGGSEAELAAFEKEIAAFESELQAYKGKGNPEVEALRVTAAQIRHYLQAYRHN | 23.5
D-domain SEQ ID NO: 209 (designed binder) MGSWEEFDNRLEAIFDRLEALGGSEAELAAFEKEIAAFESELQAYKGKGNPEVEELREFAATIRITLQAYRHN | 3.93
D-domain SEQ ID NO: 205 (designed binder) MGSWTEFWVRLNAIRDRLEALGGSEAELAAFEKEIAAFESELQAYKGKGNPEVEDLRHTAAIIRNYLQAYRHN | 12.5
D-domain SEQ ID NO: 204 (designed binder) MGSWFEFWDRLAAIRDRLEALGGSEAELAAFEKEIAAFESELQAYKGKGNPEVEDLRYVAAKIRVRLQAYRHN | 12.8
D-domain SEQ ID NO: 214 (designed binder) MGSWTEFWARLYAIEMRLFALGGSEAELAAFEKEIAAFESELQAYKGKGNPEVEHLRRVAALIREQLQAYRHN | 12.5
D-domain SEQ ID NO: 206 (designed binder) MGSWVEFWHRLGAIYDRLEALGGSEAELAAFEKEIAAFESELQAYKGKGNPEVEELRRTAALIRQTLQAYRHN | 19.9
D-domain SEQ ID NO: 202 (designed binder) MGSWSEFWDRLTAIRVRLDALGGSEAELAAFEKEIAAFESELQAYKGKGNPEVEKLRYTAAHIRKFLQAYRHN | 16.1
D-domain SEQ ID NO: 197 (designed binder, also called bc40) MGSWSEFWVRLGAIRERLDALGGSEAELAAFEKEIAAFESELQAYKGKGNPEVEKLRYTAATIRRFLQAYRHN | 7.56
D-domain SEQ ID NO: 208 (designed binder) MGSWSEFWERLEAIYDRLYALGGSEAELAAFEKEIAAFESELQAYKGKGNPEVEELRRTAATIRSFLQAYRHN | 18.8
D-domain SEQ ID NO: 207 (designed binder) MGSWVEFWNRLGAIYDRLEALGGSEAELAAFEKEIAAFESELQAYKGKGNPEVEKLRHTAAVIRLYLQAYRHN | 14.6

Binder | ELISA_avg
D-domain SEQ ID NO: 135 (designed binder) MGSWIEFDRRLLAIHVRLWALGGSEAELAAFEKEIAAFESELQAYKGKGNPEVEVLRADAAKIRMELQAYRHN | 13.7
D-domain SEQ ID NO: 138 (designed binder) MGSWYEFHTRLIAIYVRLWALGGSEAELAAFEKEIAAFESELQAYKGKGNPEVEWLRGDAAKIRGYLQAYRHN | 4.06
D-domain SEQ ID NO: 143 (designed binder) MGSWTEFYQRLEAINFRLWALGGSEAELAAFEKEIAAFESELQAYKGKGNPEVEVLRDKAALIRLMLQAYRHN | 6.96
D-domain SEQ ID NO: 131 (designed binder) MGSWVEFHGRLAAIYVRLFALGGSEAELAAFEKEIAAFESELQAYKGKGNPEVESLRYHAAMIRRNLQAYRHN | 4
D-domain SEQ ID NO: 122 (designed binder) MGSWLEFHYRLHAIQFRLYALGGSEAELAAFEKEIAAFESELQAYKGKGNPEVETLRHIAALIRNQLQAYRHN | 12.7
D-domain SEQ ID NO: 119 (designed binder) MGSWYEFGDRLSAIWERLAALGGSEAELAAFEKEIAAFESELQAYKGKGNPEVEYLRTHAAEIRTILQAYRHN | 8.89
D-domain SEQ ID NO: 146 (designed binder) MGSWGEFNLRLVAIHVRLWALGGSEAELAAFEKEIAAFESELQAYKGKGNPEVEFLRSQAANIRAQLQAYRHN | 12.8
D-domain SEQ ID NO: 147 (designed binder) MGSWGEFSDRLEAINERLWALGGSEAELAAFEKEIAAFESELQAYKGKGNPEVEELRWQAAFIRANLQAYRHN | 4.26
D-domain SEQ ID NO: 141 (designed binder) MGSWNEFRNRLGAIDSRLWALGGSEAELAAFEKEIAAFESELQAYKGKGNPEVETLRAHAAIIRSVLQAYRHN | 4.7
D-domain SEQ ID NO: 144 (designed binder) MGSWNEFYNRLHAINLRLWALGGSEAELAAFEKEIAAFESELQAYKGKGNPEVEVLREHAAIIRQALQAYRHN | 3
D-domain SEQ ID NO: 142 (designed binder) MGSWHEFRNRLGAIDSRLWALGGSEAELAAFEKEIAAFESELQAYKGKGNPEVETLRARAAMIRSVLQAYRHN | 3.49
D-domain SEQ ID NO: 125 (designed binder) MGSWYEFHYRLKAINDRLYALGGSEAELAAFEKEIAAFESELQAYKGKGNPEVEYLRYSAAMIRHKLQAYRHN | 6.04
D-domain SEQ ID NO: 126 (designed binder) MGSWTEFHQRLGAIHARLGALGGSEAELAAFEKEIAAFESELQAYKGKGNPEVEYLRFSAAFIRLKLQAYRHN | 8.87
D-domain SEQ ID NO: 124 (designed binder) MGSWNEFHHRLWAIFDRLGALGGSEAELAAFEKEIAAFESELQAYKGKGNPEVEVLRKMAAGIRGGLQAYRHN | 3.88
D-domain SEQ ID NO: 115 (designed binder) MGSWNEFSGRLTAIKDRLAALGGSEAELAAFEKEIAAFESELQAYKGKGNPEVEELRFRAAVIRLWLQAYRHN | 3.39
D-domain SEQ ID NO: 116 (designed binder) MGSWVEFDERLVAIWFRLHALGGSEAELAAFEKEIAAFESELQAYKGKGNPEVEALRARAAYIRIWLQAYRHN | 8.96
D-domain SEQ ID NO: 132 (designed binder) MGSWVEFDRRLVAIYIRLWALGGSEAELAAFEKEIAAFESELQAYKGKGNPEVEALRDDAALIRLLLQAYRHN | 8.93
D-domain SEQ ID NO: 117 (designed binder) MGSWSEFGQRLSAIWERLLALGGSEAELAAFEKEIAAFESELQAYKGKGNPEVEALRADAAFIRIWLQAYRHN | 14
D-domain SEQ ID NO: 137 (designed binder) MGSWVEFDRRLIAIWVRLWALGGSEAELAAFEKEIAAFESELQAYKGKGNPEVEFLRSDAAMIREHLQAYRHN | 5.77
D-domain SEQ ID NO: 133 (designed binder) MGSWVEFDRRLVAIYIRLWALGGSEAELAAFEKEIAAFESELQAYKGKGNPEVEKLRYDAATIRETLQAYRHN | 8
D-domain SEQ ID NO: 136 (designed binder) MGSWIEFDRRLIAIWIRLWALGGSEAELAAFEKEIAAFESELQAYKGKGNPEVESLRSDAADIRQKLQAYRHN | 9.45
D-domain SEQ ID NO: 134 (designed binder) MGSWLEFDRRLTAIYLRLWALGGSEAELAAFEKEIAAFESELQAYKGKGNPEVEALREDAAMIRDMLQAYRHN | 9.82
